In the domain aggregation screens of Martell et al. (2025):

Assay: soluble fraction after stress (log2 fold change); higher = more stays soluble; pooled small domains, quantitative proteomics
Settings: stress: 50 degC
Method in brief: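 Pooled custom libraries of small protein domains were each held under stress at 50°C. The read-out, high-throughput quantitative proteomics, tracked how much of each protein stayed soluble. This is reported as a base-two log fold change used to indicate aggregation propensity. Higher values mean more protein remains in solution.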

Row | Sequence | soluble fraction (log2)
1 | HMNSEPKTKLQEIAQERGLAAPVYETTHTGPDHDRIFSASVTVGDVVAAGEARSRKGAESEAAIAAIKALG | 0.212
2 | HMKRTFGEISPLPSGRYRARYRGPDGERYPAPVTFLSRMDAETWLSAQARKVSSGDWTPPVGVVA | -0.16
3 | HMDGVSAEAVKSHIKTLIDGEGAKILSDDTLVDLLNAKGFDIARRTVAKYREAMGIGSSVQRRRQKKMG | 0.178
4 | HMGAAAQLLHAVVLRVPAEDTMKFVSETPELRRYLGAPLGPTAALVRPGQEQELAAALQAHGILVEFDE | -0.0602
5 | HMFNRAVSDNEALQVREHFDRDATVMSLAKKYGVSTVTIQRILLGKTYRNVGGPLFDKATLKKRMGN | -0.66
6 | HMSKPVVWIVGDSTVSAFTDNYYYPRYGWGTQIDKYLDGTFEVKNIALSGRSSTSYTADKEYGELIAG | 0.0416
7 | HMKAQLQHIIGSNIKLARNTQGYTQEGLAERAEISVEHLKQVERGKKMLSVESLVNVANALQVSVDSLV | 0.0587
8 | HMYTVQPHESLWSIAASQLGDGHRFTEIVDLNQELLGGKANFIKPGWVLQIP | -0.299
9 | HMTPQGALDYSRNAKYLRDQVTAINYLKQARLSLNTTDANYRQTLEQINQAIAKHNQALQQAGVQSQQLAT | 0.0556
10 | HMIIDPQIRTLWTSQIIDILKSNPKRSIRSILELYPSNKESWVLIILQELIGEEKIIRDLDYLYFNK | -2.22
11 | HMSKNVTMPNLVGYSMRQAKAELLSRGLHLGKLIYVNDIATNNVISQLYRNAEIEPGVKIESESYVDLVVG | -1.45
12 | HMHKTEIKIPSREDILAVLRQAQAPLTREQVFEHLKLTEDQIPIIEKRLNAMERDGQLMPNRKGMLLLSTK | 0.266
13 | HMLKASEVLPYVFTDKFFIDDLNLKQDQILGFLEYIDSKLPSQKLLQVSQQFQLIDFLINESKNYKNQ | -0.382
14 | HMIEEIETQFLFDFGLIGHPNSAKIREKLSEALGIGYVNGKQLQKRLMMFGITKQQVVDVLTD | -4.94
15 | HMKINYNEFLRRFLGEKEGDIIEMETGKRIGTHKGYWFHTIGQRKGLGLGGGPWFVIRKDIDENIIYVSHG | -1.06
16 | HMQNYTTIIGVIELRLNDISYDNVRKRYHIGRSGITLIMDRYRDSGLSLEDLKQMTPEKVVDLFYPR | -2.3
17 | HMQKPWFYESSGQRKGGFSEQEMVGLITDGEITHGAIVWRNGLSDWTKLEQTELAAHLDKTA | -0.249
18 | HMANNPISMIKIRQILRLHIQGRSKLQIAAQTGISRNTLKKYLKEFEASKLTYDEISELSDKDLEDLFIK | -2.02
19 | HMAPVVELEDVTIVRGKATLLDRVNWVIDETDRWVIVGPNGAGKTTLLQVVSANLHPTSGKAMILDEVL | 0.023
20 | HMELTDRQKQIIEIVKKQQPISGEKIASILGFARATLRPDFSLLTMSGILQAKPKVGYLINEE | -0.152
21 | HMSNEIIFNQKSITRFLMNPENNSPMIYPLELGHEMKVIKKNNDWLNVTDEKTGLNGWVISDDFGLTKPEG | -0.212
22 | HMDLIISDIRMPEMRGDDFLEWIKANELFKHIPVIMLSSEDSTTERIRLLEIGAEDYIVKPFNPMELKIR | -0.505
23 | HMDRYVDEEKRFYWRSGEAYLNFSKYKDRSLAEVATVDPGFLRWMMEADFSPETKQIVERALEGEFPQKK | 0.123

Row | Sequence | soluble fraction (log2)
24 | HMASVGTHIKRLRAAKRMTQEELAEQLHVTRQAVSAWETGKALPDVEMLERIAAALDADVTEVIYGA | 0.0402
25 | HMDNMFVEERQALIYEELQSNGRVRVKDLSKKFNVSEDLIRKDLNVLEKEGKLRKIYGGAVLAK | 0.568
26 | HMRQPAAVEYSTFLDWVHASQVERVVFEGDTIRGVRVTGEGFVTYSPETDNTALIGELKKSRVQISATAP | -0.153
27 | HMNVWESVDLRQEQHEAKRRLILKQAALLFADRGFHETTIDQIAEALNVTKPTIYYYIESKEDLLYQVA | -0.0821
28 | HMATGTVKWFNPNKGFGFIQQDDASKDVFVHSNELNGVYINEGDKVEFDVVETEKGLSAQNIKK | -0.0828
29 | HMKRDEYIAQLKKYLKRLPKKEYDSAIEYFTEYFDEAGPERELEVIQELGQPKEAAKEMLLQLLNE | 0.0905
30 | HMEIFYGDDRVYTVSLHGQNNFPFRKKTSDFDYGFEDGTGDEEYLRVLDVTLSRLENEQFDLLFFQAGV | -0.203
31 | HMDISEIEKRLLDFLEMPRSRKEIAEHLGIRTISYAIQTYITPLIDKKLVKMTIPESPRSHSQQYVRIN | -0.92
32 | HMLKVHPRDQEENRLLLLKGERLYEESTGDTRVMIDMWLRKFEEALNSRSRENIEDARRELKEQLAELDN | -0.00144
33 | HMSHGYVELKAENNDALISALENHTWFENIKLDPETNLVKAILTKPIEAENLNKMLFEKGIILSHLVKRK | -0.0853
34 | HMEMNDFETLRDMYLTGKIWNVGDIVEANGVRGKVIRKGTNYLSFVDEDNKVHKAWLYDIEE | -0.197
35 | HMAKRQATIVYEGTNVRSGPSTSSAIVKRTGKGESYPIVSTKGDWYEIKLSNGDSAYVASWVVQTVD | -0.328
36 | HMVPVQLTPRELQVARLAAHGASSPEIAAELRVSRRTVDNQLGRVYAKLGIAGRAELAAALSRLPVSV | -0.0808
37 | HMSKTQVKSVLDDIKGIGVVRRKALIKHFNDIEAIKAAQLAELKAVAGMDSKSAQSVYDFFHK | -0.186
38 | HMNAMFEKVLAAVMGFIGVSAFAKNADGKSEMTSDQEKRLTDKWGSKFVEEFKNDLLEYEKNGNAAEDAV | -0.264
39 | HMGVARGQAQVTTRQHVVQPGETLYQISKQYGVTVAEILRYNADIEDNTVKVGQTLQIPTPLP | ≥ 0.62
40 | HMELDFLRLQIITGIHSGRLSNNEILMMYDTYSQKGGNSYVSRIVNDYVDENNIKEEGKRNARK | -0.346
41 | HMIHKTDAINLGQRLLKSSLKEFDVSLKDIPNKTLMYILSEYKFNSLDDLYREIGLGNVIPKLVALRMAP | -0.423
42 | HMGRYVIQIASFSSKNNAIEAADKLGGFVVQSGRFYRVRTGPFATRGEADAALASARRVGYRDAFIDTS | -0.531
43 | HMPMTLGENIARLRTQKDWSQGDLADALGISRQSISKWETDTSIPELEKLIKLSELFGVTLDQLVRGE | -0.193
44 | HMGGLALAEREVVEWLSQRNLLPSPDVVARAAAHPDGLGWLERSLAVLEGPRLFLGLGDLVPEP | -0.411
45 | HMRILGIDPGSVVTGYGVIDKSGNYLRHVLHGEIKPHKGYLLSEVLMDIFSKLSAVIVETNPQSV | -0.0179
46 | HMTEGDRLARRILRLVRNKPNGYPEVELMKATVLDWNHFQRSISSLEMAGILERRDPGDGTPPVWVEKR | -0.688

Row | Sequence | soluble fraction (log2)
47 | HMSTVEKDSELGGNFRIASYPTGKGQISEAIRSMIVRAKQVGVNIRLNTEATEEPLRALAPNAVILATG | 0.0325
48 | HMPNQIKQIAVNTASVSDIATIPGISFDFAKEIWEFRILRQKIGSLSELQKIEGMTASKYALIELYLHI | -3.37
49 | HMRSDSEIKEDVLDELMWQPNIDETQIGVIVEKGVVTLTGFVDAYAKKTAALDAVKNVKGVKAVANDIEV | 0.131
50 | HMLSSNEIKEIFALFDKSNRGQVATSELGTLVRALNLNPTETEITDMQSKVDPKGQGSFTLDVLEKVVQD | 0.206
51 | HMDYENGTVKWFNTKKGYGFITRENGEDLFVHFRNIKGRGRRSLNDGEPVTFVVIEGDKGLQADQVSA | -0.025
52 | HMSLQEISDLISQAERADQEQLKEVLKQLHQVESGNQPMSKGFLSSALSTLNKYPALITSIGQLLFKLAT | 0.00954
53 | HMIIVMASSKKEDVAHVVHKIEELGYKAHVIVGVERTVVAAVGDERGKERLISLEALPHVEKVFPILK | -0.055
54 | HMKRQDFEFLVNLLRQNAGWDFDEEQYFVVDKKISNFIREKGYASVEDLIDELKVGAKPLISQVVESLAL | -0.622
55 | HMKIDANTFTSIEKQLFVLLSKTPTPMGSIFVALAKEDKEAVWEVIHFLEAENRLIMNEDGTIQL | -1.39
56 | HMETLTPQEHKVLLLAVKGRTNGEIASELGIAQNTVKNHLAHIYAKMGVGNRTELASEYLRRIH | 0.0726
57 | HMEKMLENIDLKAAVEALPEREKKVILLRYYRGMTQDAAAKVMKVSQVQISRIEKRAIEILREKL | -1.52
58 | HMTVKKLIINEDNSGRRIDNYLLSIFNSVPRSKIYNIIRKGEVRVNSSRIKPSYRLEEGDQVRIPPNLDYT | -1.04
59 | HMLLSYDIAEYIEKYIHEHGLQPGDRLPTERELAAQLDITRVSVRQGYKRLLDQGVIRSENGYYVNPPR | -1.34
60 | HMILPKFNQLLGQMGENIKLARKRRKLTAVQVSERAGIARSTLYLIEKGDASVSLGAYFNVLRVLG | -1.46
61 | HMKLTESQLHKFTNDAVLAHIRNLIEFKGAFTEDDIEPIIRDRAAVYGIDLEDEDYKKVKTDVEYHFK | -0.000214
62 | HMLPDAESFSYEVPYTKGDGGTYNYEGKIKAQNADAARDEIIRQAQVYFQMNPQFTPDYPSTTITSLD | 0.171
63 | HMDDYRSLRGQEKAAIFLMSLSQEQAAKIFANLDDEEIKEISQAMSSLGTVGSEIIERLFVEFAEQVSS | -1.06
64 | HMSVKIELNENEQAIFTAVQKVNEAVLPELRAQFSDMSNKAWDNSVKMLTKNNLLKVSKEGEILYIRM | -0.567
65 | HMSKGKNEVIAYLKAHNDHRLTVAEILDGLKEEGISINRSTIYRNLDKLVENGDILAFKGKDSESAFYQYS | 0.0754
66 | HMDDPYAGLRQRAYLFLRERDGAVPEEELIEHVFGSSGNPALWRPLLRQVLGADDRLDLRADGYWALRG | 0.118
67 | HMDYDDLVPLDARGRLRLDGQDIILAFGRHRGRSIEEVHNHDKSYFDWLVSPAGGLEDEVIATLRERF | -0.607
68 | HMVDLDIENYELEDILNLFRLQYNFVEADLKRAYRMALKLHPDKSGLDGEYFRFYMKAYKIVENIFNFRNR | -1.78
